Measurements from patent publication US20240166750A1.

Legend:
[1] = molecular target: Recombinant human FcγRIIIa-V158 (human) (UniProt P08637); assay: SPR Biacore T200
[2] = molecular target: FcγRIIIa (V158) expressed on engineered Jurkat effector cells (UniProt P08637); assay: cell-based or functional assay
[3] = molecular target: Recombinant human FcγRIIIa-V158 (human) (UniProt P08637); assay: SPR Biacore T200; antibody on Protein A, FcγRIIIa-V158 analyte; 1:1 fit
[4] = molecular target: biotinylated recombinant human FcRn (human) (UniProt P55899); assay: SPR Biacore T200, pH 6.0; biotin-FcRn on CAP chip, antibody analyte; bivalent fit, apparent KD; SD 240 nM
Sequence of biotinylated recombinant human FcRn (human) (P55899 24-297 limits assumed, chain 1 of 2): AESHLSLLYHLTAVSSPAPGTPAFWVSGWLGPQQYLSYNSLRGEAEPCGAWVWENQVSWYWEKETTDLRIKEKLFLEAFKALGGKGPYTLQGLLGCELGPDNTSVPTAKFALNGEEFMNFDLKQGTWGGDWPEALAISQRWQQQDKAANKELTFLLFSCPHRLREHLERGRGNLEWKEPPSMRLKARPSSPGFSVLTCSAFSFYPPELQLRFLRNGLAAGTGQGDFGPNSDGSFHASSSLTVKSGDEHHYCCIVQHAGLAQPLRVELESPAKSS
Sequence of biotinylated recombinant human FcRn (human) (P61769 21-119 limits assumed, chain 2 of 2, further chain): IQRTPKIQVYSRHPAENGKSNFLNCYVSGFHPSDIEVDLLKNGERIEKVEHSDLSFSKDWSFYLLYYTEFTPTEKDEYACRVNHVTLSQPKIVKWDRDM

[5] = molecular target: biotinylated recombinant human FcRn (human) (UniProt P55899); assay: FcRn affinity chromatography, pH gradient 5.5-9.5
[6] = molecular target: biotinylated recombinant human FcRn (human) (UniProt P55899); assay: SPR Biacore T200, pH 7.4; steady-state RU at 1000 nM antibody; SD 0.2 RU
[7] = molecular target: Recombinant human FcγRIIIa-V158 (human) (UniProt P08637); assay: SPR Biacore T200; antibody on Protein A, FcγRIIIa-V158 analyte; 1:1 fit; remark: listed apart in the source
[8] = molecular target: Recombinant human HPC4-tagged FcγRIIIa-V158 (human) (UniProt P08637); assay: SPR Biacore T200; receptor captured by anti-HPC4, antibody analyte; steady-state RU
[9] = molecular target: biotinylated recombinant human FcRn (human) (UniProt P55899); assay: SPR Biacore T200, pH 6.0; biotin-FcRn on CAP chip, antibody analyte; bivalent fit, apparent KD; SD 700 nM
[10] = molecular target: Recombinant human FcγRIIIa-V158 (human) (UniProt P08637); assay: SPR Biacore T200; antibody on protein A, FcγRIIIa-V158 analyte; 1:1 kinetic fit
[11] = molecular target: Recombinant human FcγRIIIa-V158 (human) (UniProt P08637); assay: SPR Carterra LSA; Fc on protein AG, hFcγRIIIa-V158 analyte; 1:1 kinetic fit
[12] = molecular target: biotinylated recombinant human FcRn (human) (UniProt P55899); assay: SPR Biacore T200, pH 7.4; steady-state RU at 1000 nM antibody; SD 3.3 RU
[13] = molecular target: biotinylated recombinant human FcRn (human) (UniProt P55899); assay: SPR Biacore T200, pH 6.0; biotin-FcRn on CAP chip, antibody analyte; bivalent fit, apparent KD; SD 260 nM
[14] = molecular target: biotinylated recombinant human FcRn (human) (UniProt P55899); assay: SPR Biacore T200, pH 7.4; steady-state RU at 1000 nM antibody; SD 5.6 RU
[15] = molecular target: biotinylated recombinant human FcRn (human) (UniProt P55899); assay: SPR Biacore T200, pH 6.0; biotin-FcRn on CAP chip, antibody analyte; bivalent fit, apparent KD; SD 47 nM
[16] = molecular target: biotinylated recombinant human FcRn (human) (UniProt P55899); assay: SPR Biacore T200, pH 7.4; steady-state RU at 1000 nM antibody; SD 5.4 RU
[17] = molecular target: biotinylated recombinant human FcRn (human) (UniProt P55899); assay: SPR Biacore T200, pH 6.0; biotin-FcRn on CAP chip, antibody analyte; bivalent fit, apparent KD; SD 10 nM
[18] = molecular target: biotinylated recombinant human FcRn (human) (UniProt P55899); assay: SPR Biacore T200, pH 7.4; steady-state RU at 1000 nM antibody; SD 2.1 RU

Substance: afucosylated DE (S239D/I332E) antibody specific for protein 1 (human IgG1)
- fold increase in receptor binding compared to DE antibody [1]: 3.5 fold
- ADCC activity (ADCC reporter gene assay), fold vs DE antibody without modification [2]: 3.2 fold
- Kd [3]: 4 nM
- koff [3]: 0.003 s⁻¹
- kon [3]: 750000 M⁻¹ s⁻¹

Substance: WT antibody specific for protein 3, without kifunensine
- Kd [4]: 2000 nM
- pH of elution [5]: 7.07 pH
- RU (steady state, pH 7.4) [6]: 0.8 RU

Substance: hypergalactosylated DE (S239D/I332E) antibody specific for protein 1 (human IgG1)
- fold higher affinity than the unmodified DE antibody [1]: 1.8 fold
- Kd [7]: 8 nM
- koff [7]: 0.004 s⁻¹
- kon [7]: 480000 M⁻¹ s⁻¹

Substance: WT antibody specific for protein 3, with kifunensine
- Fold Change (Kifunensine Treated vs Untreated) in FcγRIIIa Binding Affinity [8]: 1.76 fold
- Fold Change versus WT in FcγRIIIa Binding Affinity with Kifunensine Treatment [8]: 1.76 fold
- pH of elution [5]: 7.01 pH
- RU (steady state, pH 7.4) [6]: 0.5 RU
- Kd [9]: 3040 nM

Substance: WT antibody specific for protein 5 (TPP-23424)
- Kd [10]: 118 nM

Substance: Fc fragment S298A, no kifunensine (from UniProt P01857 104-330)
- Kd [11]: 230 nM

Substance: YTE antibody specific for protein 3, without kifunensine
- RU (steady state, pH 7.4) [12]: 10.7 RU
- pH of elution [5]: 7.74 pH
- Kd [13]: 1270 nM

Substance: Fc fragment S298A, with kifunensine (from UniProt P01857 104-330)
- Kd [11]: 21 nM

Substance: DE (S239D/I332E) antibody specific for protein 1 (human IgG1)
- Kd [7]: 14 nM
- koff [7]: 0.006 s⁻¹

Substance: WT antibody specific for protein 1 (human monoclonal IgG1, mAb A)
- Kd [7]: 540 nM
- koff [7]: 0.031 s⁻¹
- kon [7]: 60000 M⁻¹ s⁻¹
- Kd [3]: 557 nM
- koff [3]: 0.107 s⁻¹
- kon [3]: 190000 M⁻¹ s⁻¹

Substance: LS antibody specific for protein 3, without kifunensine
- pH of elution [5]: 7.84 pH
- RU (steady state, pH 7.4) [14]: 19.4 RU
- Kd [15]: 534 nM

Substance: DE (S239D/I332E) antibody specific for protein 1 containing oligomannose (human IgG1)
- fold higher affinity than the unmodified DE antibody [1]: 2.3 fold
- ADCC activity (ADCC reporter gene assay), fold vs DE antibody without modification [2]: 1.4 fold
- Kd [7]: 6 nM
- koff [7]: 0.002 s⁻¹
- kon [7]: 400000 M⁻¹ s⁻¹

Substance: DE (R292C/V302C) antibody specific for protein 5 (TPP-35708)
- Fold KD WT [10]: 31 fold
- Kd [10]: 3.79 nM
- koff [10]: 0.00832 s⁻¹
- kon [10]: 2.2e+06 M⁻¹ s⁻¹

Substance: WT antibody specific for protein 1 containing oligomannose (human IgG1)
- Kd [7]: 256 nM
- koff [7]: 0.017 s⁻¹
- kon [7]: 70000 M⁻¹ s⁻¹

Substance: Fc fragment S298C, no kifunensine (from UniProt P01857 104-330)
- Kd [11]: 86 nM

Substance: Fc fragment S298C, with kifunensine (from UniProt P01857 104-330)
- Kd [11]: 24 nM

Substance: LS antibody specific for protein 3, with kifunensine
- Fold Change (Kifunensine Treated vs Untreated) in FcγRIIIa Binding Affinity [8]: 1.75 fold
- Fold Change versus WT in FcγRIIIa Binding Affinity with Kifunensine Treatment [8]: 1.85 fold
- pH of elution [5]: 7.81 pH
- RU (steady state, pH 7.4) [16]: 16.6 RU
- Kd [17]: 658 nM

Substance: YTE antibody specific for protein 3, with kifunensine
- Fold Change (Kifunensine Treated vs Untreated) in FcγRIIIa Binding Affinity [8]: 2.88 fold
- Fold Change versus WT in FcγRIIIa Binding Affinity with Kifunensine Treatment [8]: 1.26 fold
- Kd [4]: 1210 nM
- pH of elution [5]: 7.68 pH
- RU (steady state, pH 7.4) [18]: 9 RU

Substance: afucosylated antibody specific for protein 5 (Creative Biolabs)
- Fold KD WT [10]: 8 fold
- Kd [10]: 14.9 nM
- koff [10]: 0.00925 s⁻¹
- kon [10]: 622000 M⁻¹ s⁻¹
